Test results taken from patent US20180051079A1 (MacroGenics, published 2018).

T1: CD32B (UniProt P31994 43-217, limits assumed)
T1 construct: Only the name is printed; also called FcγRIIB
T1 sequence (looked up): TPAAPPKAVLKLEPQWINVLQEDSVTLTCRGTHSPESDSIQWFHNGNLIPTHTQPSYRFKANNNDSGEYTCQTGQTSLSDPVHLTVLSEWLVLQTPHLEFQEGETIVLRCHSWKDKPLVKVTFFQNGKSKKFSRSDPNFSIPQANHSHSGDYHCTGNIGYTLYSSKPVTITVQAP

B1: Fc variant D270E G316D R416G (other, UniProt P01857-1 104-330, looked up)
chain: DKTHTCPPCPAPELLGGPSVFLFPPKPKDTLMISRTPEVTCVVVDVSHEEPEVKFNWYVDGVEVHNAKTKPREEQYNSTYRVVSVLTVLHQDWLNDKEYKCKVSNKALPAPIEKTISKAKGQPREPQVYTLPPSRDELTKNQVSLTCLVKGFYPSDIAVEWESNGQPENNYKTTPPVLDSDGSFFLYSKLTVDKSGWQQGNVFSCSVMHEALHNHYTQKSLSLSPGK
notes: domain: Fc
B2: Fc variant F243I R292P Y300L V305I P396L (other, UniProt P01857-1 104-330, looked up)
chain: DKTHTCPPCPAPELLGGPSVFLIPPKPKDTLMISRTPEVTCVVVDVSHEDPEVKFNWYVDGVEVHNAKTKPPEEQYNSTLRVVSILTVLHQDWLNGKEYKCKVSNKALPAPIEKTISKAKGQPREPQVYTLPPSRDELTKNQVSLTCLVKGFYPSDIAVEWESNGQPENNYKTTPLVLDSDGSFFLYSKLTVDKSRWQQGNVFSCSVMHEALHNHYTQKSLSLSPGK
notes: domain: Fc; Written as printed (F243I); may be a misprint of F243L
B3: Fc variant R255L D270E P396L (other, UniProt P01857-1 104-330, looked up)
chain: DKTHTCPPCPAPELLGGPSVFLFPPKPKDTLMISLTPEVTCVVVDVSHEEPEVKFNWYVDGVEVHNAKTKPREEQYNSTYRVVSVLTVLHQDWLNGKEYKCKVSNKALPAPIEKTISKAKGQPREPQVYTLPPSRDELTKNQVSLTCLVKGFYPSDIAVEWESNGQPENNYKTTPLVLDSDGSFFLYSKLTVDKSRWQQGNVFSCSVMHEALHNHYTQKSLSLSPGK
notes: domain: Fc
B4: Fc variant F243L R292P Y300L P396L (other, UniProt P01857-1 104-330, looked up)
chain: DKTHTCPPCPAPELLGGPSVFLLPPKPKDTLMISRTPEVTCVVVDVSHEDPEVKFNWYVDGVEVHNAKTKPPEEQYNSTLRVVSVLTVLHQDWLNGKEYKCKVSNKALPAPIEKTISKAKGQPREPQVYTLPPSRDELTKNQVSLTCLVKGFYPSDIAVEWESNGQPENNYKTTPLVLDSDGSFFLYSKLTVDKSRWQQGNVFSCSVMHEALHNHYTQKSLSLSPGK
notes: domain: Fc; also called Mutant 16
B5: Fc variant F243L D270E K392T P396L (other, UniProt P01857-1 104-330, looked up)
chain: DKTHTCPPCPAPELLGGPSVFLLPPKPKDTLMISRTPEVTCVVVDVSHEEPEVKFNWYVDGVEVHNAKTKPREEQYNSTYRVVSVLTVLHQDWLNGKEYKCKVSNKALPAPIEKTISKAKGQPREPQVYTLPPSRDELTKNQVSLTCLVKGFYPSDIAVEWESNGQPENNYTTTPLVLDSDGSFFLYSKLTVDKSRWQQGNVFSCSVMHEALHNHYTQKSLSLSPGK
notes: domain: Fc
B6: Fc variant P247L D270E N421K (other, UniProt P01857-1 104-330, looked up)
chain: DKTHTCPPCPAPELLGGPSVFLFPPKLKDTLMISRTPEVTCVVVDVSHEEPEVKFNWYVDGVEVHNAKTKPREEQYNSTYRVVSVLTVLHQDWLNGKEYKCKVSNKALPAPIEKTISKAKGQPREPQVYTLPPSRDELTKNQVSLTCLVKGFYPSDIAVEWESNGQPENNYKTTPPVLDSDGSFFLYSKLTVDKSRWQQGKVFSCSVMHEALHNHYTQKSLSLSPGK
notes: domain: Fc
B7: Fc variant F243L D270E G316D R416G (other, UniProt P01857-1 104-330, looked up)
chain: DKTHTCPPCPAPELLGGPSVFLLPPKPKDTLMISRTPEVTCVVVDVSHEEPEVKFNWYVDGVEVHNAKTKPREEQYNSTYRVVSVLTVLHQDWLNDKEYKCKVSNKALPAPIEKTISKAKGQPREPQVYTLPPSRDELTKNQVSLTCLVKGFYPSDIAVEWESNGQPENNYKTTPPVLDSDGSFFLYSKLTVDKSGWQQGNVFSCSVMHEALHNHYTQKSLSLSPGK
notes: domain: Fc
B8: Fc variant R255L D270E Y300L P396L (other, UniProt P01857-1 104-330, looked up)
chain: DKTHTCPPCPAPELLGGPSVFLFPPKPKDTLMISLTPEVTCVVVDVSHEEPEVKFNWYVDGVEVHNAKTKPREEQYNSTLRVVSVLTVLHQDWLNGKEYKCKVSNKALPAPIEKTISKAKGQPREPQVYTLPPSRDELTKNQVSLTCLVKGFYPSDIAVEWESNGQPENNYKTTPLVLDSDGSFFLYSKLTVDKSRWQQGNVFSCSVMHEALHNHYTQKSLSLSPGK
notes: domain: Fc
B9: Fc variant F243L R292P V305I (other, UniProt P01857-1 104-330, looked up)
chain: DKTHTCPPCPAPELLGGPSVFLLPPKPKDTLMISRTPEVTCVVVDVSHEDPEVKFNWYVDGVEVHNAKTKPPEEQYNSTYRVVSILTVLHQDWLNGKEYKCKVSNKALPAPIEKTISKAKGQPREPQVYTLPPSRDELTKNQVSLTCLVKGFYPSDIAVEWESNGQPENNYKTTPPVLDSDGSFFLYSKLTVDKSRWQQGNVFSCSVMHEALHNHYTQKSLSLSPGK
notes: domain: Fc; also called Mutant 13*
B10: Fc variant F243L R292P V305I P396L (other, UniProt P01857-1 104-330, looked up)
chain: DKTHTCPPCPAPELLGGPSVFLLPPKPKDTLMISRTPEVTCVVVDVSHEDPEVKFNWYVDGVEVHNAKTKPPEEQYNSTYRVVSILTVLHQDWLNGKEYKCKVSNKALPAPIEKTISKAKGQPREPQVYTLPPSRDELTKNQVSLTCLVKGFYPSDIAVEWESNGQPENNYKTTPLVLDSDGSFFLYSKLTVDKSRWQQGNVFSCSVMHEALHNHYTQKSLSLSPGK
notes: domain: Fc; also called Mutant 17
B11: Fc variant R255L D270E R292G P396L (other, UniProt P01857-1 104-330, looked up)
chain: DKTHTCPPCPAPELLGGPSVFLFPPKPKDTLMISLTPEVTCVVVDVSHEEPEVKFNWYVDGVEVHNAKTKPGEEQYNSTYRVVSVLTVLHQDWLNGKEYKCKVSNKALPAPIEKTISKAKGQPREPQVYTLPPSRDELTKNQVSLTCLVKGFYPSDIAVEWESNGQPENNYKTTPLVLDSDGSFFLYSKLTVDKSRWQQGNVFSCSVMHEALHNHYTQKSLSLSPGK
notes: domain: Fc
B12: Fc variant D270E P396L Q419H (other, UniProt P01857-1 104-330, looked up)
chain: DKTHTCPPCPAPELLGGPSVFLFPPKPKDTLMISRTPEVTCVVVDVSHEEPEVKFNWYVDGVEVHNAKTKPREEQYNSTYRVVSVLTVLHQDWLNGKEYKCKVSNKALPAPIEKTISKAKGQPREPQVYTLPPSRDELTKNQVSLTCLVKGFYPSDIAVEWESNGQPENNYKTTPLVLDSDGSFFLYSKLTVDKSRWQHGNVFSCSVMHEALHNHYTQKSLSLSPGK
notes: domain: Fc
B13: Fc variant F243L P247L N421K (other, UniProt P01857-1 104-330, looked up)
chain: DKTHTCPPCPAPELLGGPSVFLLPPKLKDTLMISRTPEVTCVVVDVSHEDPEVKFNWYVDGVEVHNAKTKPREEQYNSTYRVVSVLTVLHQDWLNGKEYKCKVSNKALPAPIEKTISKAKGQPREPQVYTLPPSRDELTKNQVSLTCLVKGFYPSDIAVEWESNGQPENNYKTTPPVLDSDGSFFLYSKLTVDKSRWQQGKVFSCSVMHEALHNHYTQKSLSLSPGK
notes: domain: Fc
B14: Fc variant D270E K392T P396L (other, UniProt P01857-1 104-330, looked up)
chain: DKTHTCPPCPAPELLGGPSVFLFPPKPKDTLMISRTPEVTCVVVDVSHEEPEVKFNWYVDGVEVHNAKTKPREEQYNSTYRVVSVLTVLHQDWLNGKEYKCKVSNKALPAPIEKTISKAKGQPREPQVYTLPPSRDELTKNQVSLTCLVKGFYPSDIAVEWESNGQPENNYTTTPLVLDSDGSFFLYSKLTVDKSRWQQGNVFSCSVMHEALHNHYTQKSLSLSPGK
notes: domain: Fc
B15: Fc variant F243L R292P Y300L V305I P396L (other, UniProt P01857-1 104-330, looked up)
chain: DKTHTCPPCPAPELLGGPSVFLLPPKPKDTLMISRTPEVTCVVVDVSHEDPEVKFNWYVDGVEVHNAKTKPPEEQYNSTLRVVSILTVLHQDWLNGKEYKCKVSNKALPAPIEKTISKAKGQPREPQVYTLPPSRDELTKNQVSLTCLVKGFYPSDIAVEWESNGQPENNYKTTPLVLDSDGSFFLYSKLTVDKSRWQQGNVFSCSVMHEALHNHYTQKSLSLSPGK
notes: domain: Fc; also called Mutant 18
B16: Fc variant F243L R255L D270E P396L (other, UniProt P01857-1 104-330, looked up)
chain: DKTHTCPPCPAPELLGGPSVFLLPPKPKDTLMISLTPEVTCVVVDVSHEEPEVKFNWYVDGVEVHNAKTKPREEQYNSTYRVVSVLTVLHQDWLNGKEYKCKVSNKALPAPIEKTISKAKGQPREPQVYTLPPSRDELTKNQVSLTCLVKGFYPSDIAVEWESNGQPENNYKTTPLVLDSDGSFFLYSKLTVDKSRWQQGNVFSCSVMHEALHNHYTQKSLSLSPGK
notes: domain: Fc
B17: Fc variant F243L P247L D270E N421K (other, UniProt P01857-1 104-330, looked up)
chain: DKTHTCPPCPAPELLGGPSVFLLPPKLKDTLMISRTPEVTCVVVDVSHEEPEVKFNWYVDGVEVHNAKTKPREEQYNSTYRVVSVLTVLHQDWLNGKEYKCKVSNKALPAPIEKTISKAKGQPREPQVYTLPPSRDELTKNQVSLTCLVKGFYPSDIAVEWESNGQPENNYKTTPPVLDSDGSFFLYSKLTVDKSRWQQGKVFSCSVMHEALHNHYTQKSLSLSPGK
notes: domain: Fc
B18: Fc variant F243L D270E P396L Q419H (other, UniProt P01857-1 104-330, looked up)
chain: DKTHTCPPCPAPELLGGPSVFLLPPKPKDTLMISRTPEVTCVVVDVSHEEPEVKFNWYVDGVEVHNAKTKPREEQYNSTYRVVSVLTVLHQDWLNGKEYKCKVSNKALPAPIEKTISKAKGQPREPQVYTLPPSRDELTKNQVSLTCLVKGFYPSDIAVEWESNGQPENNYKTTPLVLDSDGSFFLYSKLTVDKSRWQHGNVFSCSVMHEALHNHYTQKSLSLSPGK
notes: domain: Fc

Assays:
Experiment in all cases: assay not named in Table 4
CD16A F158 = target: T2, CD16A F158 (UniProt P08637 17-208, limits assumed)
T2 construct: Only the name and allotype are printed; also called FcγRIIIA

CD16A V158 = target: T3, CD16A V158 (UniProt P08637 17-208, limits assumed)
T3 construct: Only the name and allotype are printed; also called FcγRIIIA

CD32B = target: T1, CD32B

T3 sequence (P08637 17-208 F176V limits assumed): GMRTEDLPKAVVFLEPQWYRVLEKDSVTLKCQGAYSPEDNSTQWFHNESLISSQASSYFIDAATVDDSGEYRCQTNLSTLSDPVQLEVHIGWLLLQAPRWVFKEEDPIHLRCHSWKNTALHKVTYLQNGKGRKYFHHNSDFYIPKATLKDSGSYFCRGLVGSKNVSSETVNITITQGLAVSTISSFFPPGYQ
T2 sequence (P08637 17-208 limits assumed): as the sequence (P08637 17-208 F176V limits assumed) above, with V160F counted along it

Molecule	binding relative to wild-type Fc (CD16A F158)	binding relative to wild-type Fc (CD16A V158)	binding relative to wild-type Fc (CD32B)
Fc variant V284M R292P K370N (from UniProt P01857 104-330)	1.37	1.14	0.37
B1	2.49	2.18	0.78
B2	3.12		1.05
B3	1.65	1.34	0.87
B4	5.62	10.1	1.07
B5	2.44	3.16	0.44
B6	2.46	1.89	0.58
B7	1.34	1.5	0.2
B8	1.74	1.52	0.87
B9	1.43	2.56	
B10	2.53	5.37	0.4
B11			0.65
B12		1.64	0.68
B13	1.71	1.89	0.17
B14	2.28	1.81	0.79
B15	8.25	10.1	1.38
B16	1.64	1.75	0.38
B17	3.45	2.3	0.32
B18	1.15	1.46	0.26
